Columns and labels:
HeLa Kyoto [1] = assay: solubility in G1/S (NP-40 vs SDS abundance) (log2 ratio); higher = more soluble; details: cell cycle stage: G1/S
HeLa Kyoto [2] = assay: melting temperature (median over replicates), in situ; higher = more thermally stable
HeLa Kyoto [3] = assay: solubility change mitosis vs G1/S (difference of NP-40 vs SDS log2 ratios) (log2 ratio difference); higher = more soluble in mitosis
HeLa Kyoto [4] = assay: thermal stability score vs G1/S (z-score of summed log2 fold changes over temperatures); higher = more thermally stable than in G1/S
[5] = cell cycle stage: early G1 (4.5 h after nocodazole release)
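Throughout, for melting temperature (median over replicates), in situ: HeLa Kyoto cells synchronized by double thymidine or nocodazole block, proteins quantified by TMT10plex mass spectrometry, three independent biological replicates.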
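Throughout, for solubility change mitosis vs G1/S (difference of NP-40 vs SDS log2 ratios): synchronized HeLa Kyoto cells (double thymidine block for G1/S, nocodazole release for mitosis), protein amounts in NP-40 versus SDS lysates quantified by mass spectrometry, three biological replicates.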
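Throughout, for solubility in G1/S (NP-40 vs SDS abundance): HeLa Kyoto cells arrested at G1/S by double thymidine block, proteins quantified by TMT10plex mass spectrometry in mild NP-40 versus SDS extracts, three biological replicates.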
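Throughout, for thermal stability score vs G1/S (z-score of summed log2 fold changes over temperatures): synchronized HeLa Kyoto cells, proteins quantified by TMT10plex mass spectrometry, three biological replicates, mitosis taken 0.5 h after nocodazole release, G1/S directly after double thymidine block.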

| Sequence | solubility in G1/S (log2) (HeLa Kyoto [1]) | melting temperature (HeLa Kyoto [2]; cell cycle stage: G1/S) | melting temperature (HeLa Kyoto [2]; cell cycle stage: mitosis) | solubility change mitosis (log2) (HeLa Kyoto [3]) | thermal stability score (HeLa Kyoto [4]; [5]) | thermal stability score (HeLa Kyoto [4]; cell cycle stage: mitosis) |
| --- | --- | --- | --- | --- | --- | --- |
| MHKAGLLGLCARAWNSVRMASSGMTRRDPLANKVALVTASTDGIGFAIARRLAQDGAHVVVSSRKQQNVDQAVATLQGEGLSVTGTVCHVGKAEDRERLVATAVKLHGGIDILVSNAAVNPFFGSIMDVTEEVWDKTLDINVKAPALMTKAVVPEMEKRGGGSVVIVSSIAAFSPSPGFSPYNVSKTALLGLTKTLAIELAPRNIRVNCLAPGLIKTSFSRMLWMDKEKEESMKETLRIRRLGEPEDCAGIVSFLCSEDASYITGETVVVGGGTPSRL [DHRS4] | -0.159 | 53.4 °C | 53.5 °C | 0.0427 | -0.643 | -0.663 |
| MSLKPRVVDFDETWNKLLTTIKAVVMLEYVERATWNDRFSDIYALCVAYPEPLGERLYTETKIFLENHVRHLHKRVLESEEQVLVMYHRYWEEYSKGADYMDCLYRYLNTQFIKKNKLTEADLQYGYGGVDMNEPLMEIGELALDMWRKLMVEPLQAILIRMLLREIKNDRGGEDPNQKVIHGVINSFVHVEQYKKKFPLKFYQEIFESPFLTETGEYYKQEASNLLQESNCSQYMEKVLGRLKDEEIRCRKYLHPSSYTKVIHECQQRMVADHLQFLHAECHNIIRQEKKNDMANMYVLLRAVSTGLPHMIQELQNHIHDEGLRATSNLTQENMPTLFVESVLEVHGKFVQLINTVLNGDQHFMSALDKALTSVVNYREPKSVCKAPELLAKYCDNLLKKSAKGMTENEVEDRLTSFITVFKYIDDKDVFQKFYARMLAKRLIHGLSMSMDSEEAMINKLKQACGYEFTSKLHRMYTDMSVSADLNNKFNNFIKNQDTVIDLGISFQIYVLQAGAWPLTQAPSSTFAIPQELEKSVQMFELFYSQHFSGRKLTWLHYLCTGEVKMNYLGKPYVAMVTTYQMAVLLAFNNSETVSYKELQDSTQMNEKELTKTIKSLLDVKMINHDSEKEDIDAESSFSLNMNFSSKRTKFKITTSMQKDTPQEMEQTRSAVDEDRKMYLQAAIVRIMKARKVLRHNALIQEVISQSRARFNPSISMIKKCIEVLIDKQYIERSQASADEYSYVA [CUL2] | -0.219 | 54.1 °C | 53.6 °C | -0.148 | -0.0958 | -0.6 |
| MDDSEVESTASILASVKEQEAQFEKLTRALEEERRHVSAQLERVRVSPQDANPLMANGTLTRRHQNGRFVGDADLERQKFSDLKLNGPQDHSHLLYSTIPRMQEPGQIVETYTEEDPEGAMSVVSVETSDDGTTRRTETTVKKVVKTVTTRTVQPVAMGPDGLPVDASSVSNNYIQTLGRDFRKNGNGGPGPYVGQAGTATLPRNFHYPPDGYSRHYEDGYPGGSDNYGSLSRVTRIEERYRPSMEGYRAPSRQDVYGPQPQVRVGGSSVDLHRFHPEPYGLEDDQRSMGYDDLDYGMMSDYGTARRTGTPSDPRRRLRSYEDMIGEEVPSDQYYWAPLAQHERGSLASLDSLRKGGPPPPNWRQPELPEVIAMLGFRLDAVKSNAAAYLQHLCYRNDKVKTDVRKLKGIPVLVGLLDHPKKEVHLGACGALKNISFGRDQDNKIAIKNCDGVPALVRLLRKARDMDLTEVITGTLWNLSSHDSIKMEIVDHALHALTDEVIIPHSGWEREPNEDCKPRHIEWESVLTNTAGCLRNVSSERSEARRKLRECDGLVDALIFIVQAEIGQKDSDSKLVENCVCLLRNLSYQVHREIPQAERYQEAAPNVANNTGPHAASCFGAKKGKDEWFSRGKKPIEDPANDTVDFPKRTSPARGYELLFQPEVVRIYISLLKESKTPAILEASAGAIQNLCAGRWTYGRYIRSALRQEKALSAIADLLTNEHERVVKAASGALRNLAVDARNKELIGKHAIPNLVKNLPGGQQNSSWNFSEDTVISILNTINEVIAENLEAAKKLRETQGIEKLVLINKSGNRSEKEVRAAALVLQTIWGYKELRKPLEKEGWKKSDFQVNLNNASRSQSSHSYDDSTLPLIDRNQKSDKKPDREEIQMSNMGSNTKSLDNNYSTPNERGDHNRTLDRSGDLGDMEPLKGTTPLMQDEGQESLEEELDVLVLDDEGGQVSYPSMQKI [CTNND1] | 0.228 | 48.1 °C | 48 °C | -0.0563 | -0.443 | 1.3 |
| MAAAALRRFWSRRRAEAGDAVVAKPGVWARLGSWARALLRDYAEACRDASAEARARPGRAAVYVGLLGGAAACFTLAPSEGAFEEALLEASGTLLLLAPATRNRESEAFVQRLLWLRGRGRLRYVNLGLCSLVYEAPFDAQASLYQARCRYLQPRWTDFPGRVLDVGFVGRWWVLGAWMRDCDINDDEFLHLPAHLRVVGPQQLHSETNERLFDEKYKPVVLTDDQVDQALWEEQVLQKEKKDRLALSQAHSLVQAEAPR [C19ORF52] | -0.131 | 53.5 °C | 53.8 °C | -0.13 | 0.683 | 0.243 |
| MALVHKLLRGTYFLRKFSKPTSALYPFLGIRFAEYSSSLQKPVASPGKASSQRKTEGDLQGDHQKEVALDITSSEEKPDVSFDKAIRDEAIYHFRLLKDEIVDHWRGPEGHPLHEVLLEQAKVVWQFRGKEDLDKWTVTSDKTIGGRSEVFLKMGKNNQSALLYGTLSSEAPQDGESTRSGYCAMISRIPRGAFERKMSYDWSQFNTLYLRVRGDGRPWMVNIKEDTDFFQRTNQMYSYFMFTRGGPYWQEVKIPFSKFFFSNRGRIRDVQHELPLDKISSIGFTLADKVDGPFFLEIDFIGVFTDPAHTEEFAYENSPELNPRLFK [NDUFAF1] | 0.043 | 54.6 °C | 55.2 °C | -0.0281 | 4.31 | 3.52 |
| MDGGDDGNLIIKKRFVSEAELDERRKRRQEEWEKVRKPEDPEECPEEVYDPRSLYERLQEQKDRKQQEYEEQFKFKNMVRGLDEDETNFLDEVSRQQELIEKQRREEELKELKEYRNNLKKVGISQENKKEVEKKLTVKPIETKNKFSQAKLLAGAVKHKSSESGNSVKRLKPDPEPDDKNQEPSSCKSLGNTSLSGPSIHCPSAAVCIGILPGLGAYSGSSDSESSSDSEGTINATGKIVSSIFRTNTFLEAP [FAM192A] | 0.194 | 57.6 °C |  | -0.000768 | -1.68 | -2.27 |
| MASNVTNKTDPRSMNSRVFIGNLNTLVVKKSDVEAIFSKYGKIVGCSVHKGFAFVQYVNERNARAAVAGEDGRMIAGQVLDINLAAEPKVNRGKAGVKRSAAEMYGSVTEHPSPSPLLSSSFDLDYDFQRDYYDRMYSYPARVPPPPPIARAVVPSKRQRVSGNTSRRGKSGFNSKSGQRGSSKSGKLKGDDLQAIKKELTQIKQKVDSLLENLEKIEKEQSKQAVEMKNDKSEEEQSSSSVKKDETNVKMESEGGADDSAEEGDLLDDDDNEDRGDDQLELIKDDEKEAEEGEDDRDSANGEDDS [HNRNPC] | -0.0638 | 47.4 °C | 49.5 °C | 0.36 | 7.33 | 16.5 |
| MSNIYIQEPPTNGKVLLKTTAGDIDIELWSKEAPKACRNFIQLCLEAYYDNTIFHRVVPGFIVQGGDPTGTGSGGESIYGAPFKDEFHSRLRFNRRGLVAMANAGSHDNGSQFFFTLGRADELNNKHTIFGKVTGDTVYNMLRLSEVDIDDDERPHNPHKIKSCEVLFNPFDDIIPREIKRLKKEKPEEEVKKLKPKGTKNFSLLSFGEEAEEEEEEVNRVSQSMKGKSKSSHDLLKDDPHLSSVPVVESEKGDAPDLVDDGEDESAEHDEYIDGDEKNLMRERIAKKLKKDTSANVKSAGEGEVEKKSVSRSEELRKEARQLKRELLAAKQKKVENAAKQAEKRSEEEEAPPDGAVAEYRREKQKYEALRKQQSKKGTSREDQTLALLNQFKSKLTQAIAETPENDIPETEVEDDEGWMSHVLQFEDKSRKVKDASMQDSDTFEIYDPRNPVNKRRREESKKLMREKKERR [CWC27] | 0.0954 | 47.3 °C | 49.8 °C | 0.0672 | 0.415 | 1.04 |
| MFGAGDEDDTDFLSPSGGARLASLFGLDQAAAGHGNEFFQYTAPKQPKKGQGTAATGNQATPKTAPATMSTPTILVATAVHAYRYTNGQYVKQGKFGAAVLGNHTAREYRILLYISQQQPVTVARIHVNFELMVRPNNYSTFYDDQRQNWSIMFESEKAAVEFNKQVCIAKCNSTSSLDAVLSQDLIVADGPAVEVGDSLEVAYTGWLFQNHVLGQVFDSTANKDKLLRLKLGSGKVIKGWEDGMLGMKKGGKRLLIVPPACAVGSEGVIGWTQATDSILVFEVEVRRVKFARDSGSDGHSVSSRDSAAPSPIPGADNLSADPVVSPPTSIPFKSGEPALRTKSNSLSEQLAINTSPDAVKAKLISRMAKMGQPMLPILPPQLDSNDSEIEDVNTLQGGGQPVVTPSVQPSLHPAHPALPQMTSQAPQPSVTGLQAPSAALMQVSSLDSHSAVSGNAQSFQPYAGMQAYAYPQASAVTSQLQPVRPLYPAPLSQPPHFQGSGDMASFLMTEARQHNTEIRMAVSKVADKMDHLMTKVEELQKHSAGNSMLIPSMSVTMETSMIMSNIQRIIQENERLKQEILEKSNRIEEQNDKISELIERNQRYVEQSNLMMEKRNNSLQTATENTQARVLHAEQEKAKVTEELAAATAQVSHLQLKMTAHQKKETELQMQLTESLKETDLLRGQLTKVQAKLSELQETSEQAQSKFKSEKQNRKQLELKVTSLEEELTDLRVEKESLEKNLSERKKKSAQERSQAEEEIDEIRKSYQEELDKLRQLLKKTRVSTDQAAAEQLSLVQAELQTQWEAKCEHLLASAKDEHLQQYQEVCAQRDAYQQKLVQLQEKCLALQAQITALTKQNEQHIKELEKNKSQMSGVEAAASDPSEKVKKIMNQVFQSLRREFELEESYNGRTILGTIMNTIKMVTLQLLNQQEQEKEESSSEEEEEKAEERPRRPSQEQSASASSGQPQAPLNRERPESPMVPSEQVVEEAVPLPPQALTTSQDGHRRKGDSEAEALSEIKDGSLPPELSCIPSHRVLGPPTSIPPEPLGPVSMDSECEESLAASPMAAKPDNPSGKVCVREVAPDGPLQESSTRLSLTSDPEEGDPLALGPESPGEPQPPQLKKDDVTSSTGPHKELSSTEAGSTVAGAALRPSHHSQRSSLSGDEEDELFKGATLKALRPKAQPEEEDEDEVSMKGRPPPTPLFGDDDDDDDIDWLG [FKBP15] | 0.0656 | 49.6 °C | 50 °C | -0.0387 | -0.146 | 1.12 |
| MAANKSKGQSSLALHKVIMVGSGGVGKSALTLQFMYDEFVEDYEPTKADSYRKKVVLDGEEVQIDILDTAGQEDYAAIRDNYFRSGEGFLLVFSITEHESFTATAEFREQILRVKAEEDKIPLLVVGNKSDLEERRQVPVEEARSKAEEWGVQYVETSAKTRANVDKVFFDLMREIRTKKMSENKDKNGKKSSKNKKSFKERCCLL [RALB] | 0.046 | 57 °C | 57.7 °C | 0.0599 | -0.446 | -2.23 |
| MEELIVELRLFLELLDHEYLTSTVREKKAVITNILLRIQSSKGFDVKDHAQKQETANSLPAPPQMPLPEIPQPWLPPDSGPPPLPTSSLPEGYYEEAVPLSPGKAPEYITSNYDSDAMSSSYESYDEEEEDGKGKKTRHQWPSEEASMDLVKDAKICAFLLRKKRFGQWTKLLCVIKDTKLLCYKSSKDQQPQMELPLQGCNITYIPKDSKKKKHELKITQQGTDPLVLAVQSKEQAEQWLKVIKEAYSGCSGPVDSECPPPPSSPVHKAELEKKLSSERPSSDGEGVVENGITTCNGKEQVKRKKSSKSEAKGTVSKVTGKKITKIISLGKKKPSTDEQTSSAEEDVPTCGYLNVLSNSRWRERWCRVKDNKLIFHKDRTDLKTHIVSIPLRGCEVIPGLDSKHPLTFRLLRNGQEVAVLEASSSEDMGRWIGILLAETGSSTDPEALHYDYIDVEMSASVIQTAKQTFCFMNRRVISANPYLGGTSNGYAHPSGTALHYDDVPCINGSLKGKKPPVASNGVTGKGKTLSSQPKKADPAAVVKRTGSNAAQYKYGKNRVEADAKRLQTKEEELLKRKEALRNRLAQLRKERKDLRAAIEVNAGRKPQAILEEKLKQLEEECRQKEAERVSLELELTEVKESLKKALAGGVTLGLAIEPKSGTSSPQSPVFRHRTLENSPISSCDTSDTEGPVPVNSAAVLKKSQAAPGSSPCRGHVLRKAKEWELKNGT [AFAP1] | -0.611 | 50.5 °C | 49.7 °C | 0.451 | -1.47 | -2.94 |
